Data as given in patent US20130071374A1 (UNIVERSITY OF MEDICINE AND DENTISTRY OF NEW JERSEY, published 2013).

Legend:
[1] = target: T1, PemK(His)6 (E. coli (plasmid R100), UniProt P13976 24-133); assay: co-purification on Ni-NTA after co-expression
T1 construct: also called Kid

[2] = target: MazF(His)6 (Escherichia coli, UniProt P0AE70 1-111); assay: tricine SDS-PAGE of the purified complex, densitometry
[3] = target: T2, MazF (Escherichia coli, UniProt P0AE70 1-111); assay: native PAGE, second dimension SDS-PAGE, densitometry
T2 sequence: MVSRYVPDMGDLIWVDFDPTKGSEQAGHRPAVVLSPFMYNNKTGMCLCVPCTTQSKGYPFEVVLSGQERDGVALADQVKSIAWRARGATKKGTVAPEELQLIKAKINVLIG

B1: PemI (other)
chain: MHTTRLKRVGGSVMLTVPPALLNALSLGTDNEVGMVIDNGRLIVEPYRRPQYSLAELLAQCDPNAEISAEEREWLDAPATGQEEI
binding result [1]: binds

B2: MazE (other)
chain: MIHSSVKRWGNSPAVRIPATLMQALNLNIDDEVKIDLVDGKLIIEPVRKEPVFTLAELVNDITPENLHENIDWGEPKDKEVW
notes: also called antitoxin MazE; ChpAI
ratio of MazF(His)6 to MazE in the complex [2]: ~2

B3: (His)6MazE (other)
chain: B2 chain
notes: also called wild-type (His)6MazE; MazE with N-terminal (His)6 tag
ratio of MazF to (His)6MazE in the complex [3]: ~1.8
